Experimental data: the supplement of paper PMC10724198
± gives the standard deviation of the averaged measurements.

The sequences below were run on Saccharomyces cerevisiae (assay: protein stability index of tFT-peptide fusion (C-terminal peptide) (PSI (0-1 scale)); higher = more stable (slower turnover)). Conditions: genetic background: wild type; temperature: 30 C.
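Note: PSI is a weighted mean of sequencing reads over stability bins, variants kept only with over 10 reads, mCherry proximal and sfGFP distal, peptide attached via GGGS linker.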

VGMGAWVQQIVL and VGQCVWRVGRSS are within error of each other in protein stability index: 0.666 ± 0.043 for the first, 0.69 ± 0.044 for the second.

VGRGGGGWRLEG and VGRGGGVWRLEG are within error of each other in protein stability index: 0.694 ± 0.078 for the first, 0.699 ± 0.045 for the second.

VGRGGVRRLLQT and VGRIGNWRFGAG are within error of each other in protein stability index: 0.709 ± 0.037 for the first, 0.695 ± 0.0084 for the second.

VGRVGEGGGGRG and VGRWCCELVWGV are within error of each other in protein stability index: 0.679 ± 0.046 for the first, 0.645 ± 0.022 for the second.

First: VGRWVLEARGVV
Second: VGSGKYGVVGVG
The protein stability index of the first is higher: 0.715 ± 0.031 for the first, 0.518 ± 0.029 for the second.

VGSMRRYCRTKI and VGSPLSVCLSSR are within error of each other in protein stability index: 0.792 ± 0.25 for the first, 0.702 ± 0.012 for the second.

VGSSRRGCSGAE and VGVQLLLSAWEK are within error of each other in protein stability index: 0.685 ± 0.024 for the first, 0.715 ± 0.066 for the second.

VGVSGVCGDWAM and VGVSWSMYCANW are within error of each other in protein stability index: 0.67 ± 0.05 for the first, 0.631 ± 0.11 for the second.

VGVVGGSWEVVG and VGVWTGGDVDCH are within error of each other in protein stability index: 0.685 ± 0.031 for the first, 0.777 ± 0.086 for the second.

VGWLCVLGGAQR and VGWRVAVGWGLG are within error of each other in protein stability index: 0.762 ± 0.045 for the first, 0.691 ± 0.083 for the second.

First: VHFISPACSPPT
Second: VHLYGRTAGRGV
The protein stability index of the first is lower: 0.673 ± 0.058 for the first, 0.816 ± 0.06 for the second.

VHRYGGFRGEMS and VHSGSVDVSSFS are within error of each other in protein stability index: 0.702 ± 0.08 for the first, 0.697 ± 0.018 for the second.

First: VHSSWRVAACGK
Second: VHVLLSGVICAL
The protein stability index of the first is higher: 0.698 ± 0.031 for the first, 0.471 ± 0.061 for the second.

VIAEHCSKQGLI and VIGGGRVLGIGG are within error of each other in protein stability index: 0.639 ± 0.018 for the first, 0.653 ± 0.1 for the second.

VIGGRQGVVRHR and VIGIRNGADMSI are within error of each other in protein stability index: 0.68 ± 0.025 for the first, 0.667 ± 0.013 for the second.

VIPLSARGEEGD and VIPTYESNDRQS are within error of each other in protein stability index: 0.7001 ± 0.0035 for the first, 0.652 ± 0.064 for the second.

Going from VIQVRDLRLFSR to VIRPMTVYSVVS, the protein stability index falls from 0.734 ± 0.028 to 0.515 ± 0.029.

VIRSLPSSALPL and VITYKKKNTRKQ are within error of each other in protein stability index: 0.662 ± 0.08 for the first, 0.673 ± 0.093 for the second.

VKIYSSPFFCLI and VKLSVITGCRVT are within error of each other in protein stability index: 0.57 ± 0.011 for the first, 0.659 ± 0.092 for the second.

VKSSIGWLKVGF and VKSSSCSVLRSL are within error of each other in protein stability index: 0.671 ± 0.15 for the first, 0.7 ± 0.038 for the second.

VKTETNTDGKKR and VKVAFSIASRVD are within error of each other in protein stability index: 0.67 ± 0.15 for the first, 0.79 ± 0.0028 for the second.

VLAGFVLNDWVP and VLCRPLLPTSRL are within error of each other in protein stability index: 0.731 ± 0.023 for the first, 0.772 ± 0.02 for the second.

Compared with VLDRGGAGAVCV, VLFATLHVMALK is lower in protein stability index: 0.649 ± 0.024 for the first, 0.55 ± 0.026 for the second.

VLFDGSWSGSYL and VLGFGGVVLFFL are within error of each other in protein stability index: 0.741 ± 0.15 for the first, 0.642 ± 0.06 for the second.

First: VLGGGLGVLTWV
Second: VLGGSGFAGSPS
The protein stability index of the first is higher: 0.753 ± 0.018 for the first, 0.659 ± 0.014 for the second.

VLGLGSGGVCGG and VLGRLRGGRDRV are within error of each other in protein stability index: 0.693 ± 0.023 for the first, 0.723 ± 0.023 for the second.

VLGSVGGFVQRD and VLGVFFGSVEGC are within error of each other in protein stability index: 0.677 ± 0.036 for the first, 0.68 ± 0.05 for the second.

VLLFALSPHPPS and VLLPRIRPSYSL are within error of each other in protein stability index: 0.724 ± 0.024 for the first, 0.674 ± 0.045 for the second.

First: VLLRLVGLCQYL
Second: VLLSFLHLTASS
The protein stability index of the first is lower: 0.50067 ± 0.0004 for the first, 0.606 ± 0.03 for the second.

VLPGCFSISAPP and VLPLFSSFSRSP are within error of each other in protein stability index: 0.7038 ± 0.0062 for the first, 0.674 ± 0.058 for the second.

Compared with VLPPPPTRPLLP, VLPRVLADVRST is lower in protein stability index: 0.743 ± 0.019 for the first, 0.685 ± 0.03 for the second.

VLPTHCPPPSSR and VLRGMSVFGLGE are within error of each other in protein stability index: 0.715 ± 0.017 for the first, 0.74 ± 0.14 for the second.

First: VLRGVNGLRCRS
Second: VLRIIMQCVFVR
The protein stability index of the first is higher: 0.6863 ± 0.0046 for the first, 0.549 ± 0.0064 for the second.

VLRLGFYNINKL and VLRVSRHLKAVK are within error of each other in protein stability index: 0.676 ± 0.075 for the first, 0.65 ± 0.024 for the second.

Compared with VLSFALGSAGGR, VLSLCLSVRSFV is lower in protein stability index: 0.678 ± 0.069 for the first, 0.562 ± 0.017 for the second.

Compared with VLSLHPRRATLL, VLSVETGTSGLF is higher in protein stability index: 0.615 ± 0.03 for the first, 0.655 ± 0.01 for the second.

VLTPLWIANTFL and VLVAWWGLGGGV are within error of each other in protein stability index: 0.673 ± 0.057 for the first, 0.637 ± 0.069 for the second.

VLWLGSFKSPRR and VMGAGGRTVAEW are within error of each other in protein stability index: 0.727 ± 0.022 for the first, 0.719 ± 0.019 for the second.

VMGIGAAVRRVR and VMVGRVLEKGVV are within error of each other in protein stability index: 0.713 ± 0.02 for the first, 0.654 ± 0.069 for the second.

Going from VMVMELHGYPVV to VMVVVGLQGTMV, the protein stability index falls from 0.655 ± 0.044 to 0.5962 ± 0.0032.

In the case of VNCAYCRERKRD, the protein stability index is reported as 0.7209 ± 0.0031.
